# Measured values published in a protein production outcome set (Wang et al. 2014).
# Experiment: label from the status in PepcDB records
row,Sequence,protein production
1,MIEVIILAIALSMDAFAVSIGLGATKQQSKVAPLGIIVALYFGLFQGIMPIIGYLGGKGVLSWAESYTPWIAFLLLFLIGVKMIFDSFSEGIEEDISKITHRVLLILAIATSIDAMAAGFSLTLLPVNPLIACLIIASVTFIFSWLGVLVGTKGGTWLENKAEFVGGITLIVMAIKIIITS,failed
2,MIEYIIGVIGLLLASVQDFRSREIEDYIWIVLAVFGILFAIYSAITLSNYSILINSISGFVICFILGYMMFLSGIGGGDGKILIGLGALVPKFQMPIYTSLGTLLNLNYIPNFPIMVFINGIFFMVFLPFVILFRNILNGARPKTGKEVILMFFGEKMKVKVAKEQKRLIMGQNDKINFFPASDDEDFSKYGDEEEIWVTPQIPLIIPITLSYLVTPIIGDRILDLLIPF,failed
3,MIFEIIKIGSQPINFAYPIPLLSLLAFMLSGSGYNELIISYIFAFSFFTAANLWNHLNDAEDDLNAGRNYARFLIEHRKIVTEFVVAFYFVSFLLIFFISKSKEIALLLTGLSVVLTWLYSDKIFIGKIIRRFKEDYKTEVFTYILCSFSFPLSFWTIFSEISQVGVVFTLATGFTYLSGFFLKDLKDISADIKSGYRTLAVVLSPSTLLIISVMLFIASTFVVIFSSLLDVTPTSSLLVLTVYPPILFAIYKFHKEKWKITKNIISSLKIYTYSYLGFLIAFAIGCKL,failed
4,MIGDGIENSPLLTDLAFPYRLLGAGKESRECLFLLHGSGVDETTLVPLARRIAPTATLVAARGRIPQEDGFRWFERIDPTRFEQKSILAETAAFAAFTNEAAKRHGLNLDHATFLGYSNGANLVSSLMLLHPGIVRLAALLRPMPVLDHVPATDLAGIRTLIIAGAADETYGPFVPALVTLLSRHGAEVDARIIPSGHDIGDPDAAIVRQWLAGPIAIAQAD,not failed
5,MIGIVAAFEKVKIPEMGKSFGTGWLPPLPSLKDYTEESAQIPEMAEKLGIPTSRKETKTLELPVSIDFRNWCSPIEDQMDLGSCTAHAGVGVVEYFERRAFGKHIDGSRFFVYKTTRNLMGVKGDTGAWLRNTMGALALCGVPPEKYFPYTSRKTPGPDGEPTFDDEPSSFVYSLADNFEALNYFCHDPQGMNLPPEDVILSVKKYLAAGIPSMFGFYGFPSFKDTDVKGGIPFPGPDERSIWGHAVVAVGYDDNMKIRNTLSNKETTGAFLIRNSWGTAWGDKGYGWLPYEYALNKFALDFWSLISMKWVETGNFGLELESSRSRARETLSRDMPLPHALEHHHHHH,not failed
6,MIGPENCNSVSEPIAYVIILAGGRSSRMGYDKAQVMVDGRRLIDLCLESIASVHAHPIVVSGQDLQLTAAVTQVMEEPAFGGPVAGIAAGMRCCDTKAGLIGVIAVDAPRSGNYLNQLRRVVLTHPEVGVAHAVVEGYDQPLLAVWRYEALTQALHALGSPRNVAAKRLLRSATTPVIAVPVDSSARDYDTVAELSALGRVRLRLEHHHHHH,failed
7,MIGQFLITFREALEAAIIVAIIIAYLKRTDREEQIRDVWIGVGLSVLASVVLGAIILGLYGGIEEKELFEGIASYLAVIVLTSMIYWMATKGRNIRAEIERKVSKAINPLALVGFTFIVVFREGLETVLFLTPFAIQDLGGTLMGLVSGIIGALILAYLIYGVGMRINLRTFFYYSSILLVFVAAGLAGYGTHELIEWAEEEGMNLGFIEETAYNLGIPEDSVFHHKGVIGSIFAVLFGYSVKMEWGRVIVQFGYLIVTLYLVLRAYGQETPTAKAEK,failed
8,MIGVLSGFFVVWAIILVGMFVGRRNILGENARSVLSSLTFFVASPALLFETLSKAKLHDVFAAPLLVTAVGAVVTGLLFFLIAKFWLKRAMPEALMSSMSSSLANSANLGIPIAVFVLGDASYVAPLLIFQLAFFTPLYLMALDASTSSHRTTPLRFLLMIVKNPMIVGSALGLLVAGTGFHVPTLILEPIHLIGGAAIPAMLMSFGMSLNGSKPLRKASGRRVDTLLASGFKLIVHPLIAYLFARFALGMDGHALFAVVVTSALPTAQNVFVAANRYQAGITVAKDTVLITTIVAVPAMIAVALLLT,failed
9,MIHDLLLACRSHNPEQLGIKAFNETTVIDQFIHPCEREIFMDIIKIIKVYQEVEQFTHSSGRKSDTHGELPDSLHGYYLLNLAKGIEMALEEYYAEIGRLEKYCLGNERNSLSYVYNALYAKFPLLVFMRNLITEIHVLNLRGCVLLHNLHQQCEHGDIQLEKAIKIIMKPVKNAFFSSLAHWLLFGVIDDVHSEFFIKFTPTDAVDGSSFSKSATCSLLSAEKNPEDYIWQYEVNMSQLPGFFSIVLAEKVLFVGQTVLVFKMGRNVKVKNKTDPLAAKLAELDSDDIYQLWSGRESEFFKMVVDLSNEDTINVFRLEKVIIDIKNYVSARLSEIAVNEVDLERQMGLIKDFFLLGRGEFYLEFCSQMVGTMETYREERFKNVTRSFELAATVTGITDDLDKFSLICQRSTSEPDDTSDFNFLQGLSLKYEYEWPLNLLFSPTTIERYNNIFRFLLIIRTYQYEIQRVWAKQTWRAKSAKDVPPNNKIITLRNYLMFFLNNMQYYIQVDVLESQFGILMNVIKSRSDFEVIQRAHTVFLANVLSHCFLLNESETQLNVTGSQNRNPIYGTLLKLFGICEKFAHMTQTKDPSDDLEDEVDQLNESFGVQIASLIQLLVDVKSASCLGPLSQLLLRLDFNCWFSASHNTSA,failed
10,MIHDVDPTNDKYPAALRILHWVRALLTLGLIAAGWMMTVLADTVTEKFTLLYPWHKSFGVLVFLIVLAQLAIRAMSRLPGPAPLPAQERLLSQAVHVAMYALLLLVPLMGYAMSSSFTDSDGVFFFGIHLPELLPKDDDRFRLFQFLHKTLAYSLLALVILHVAGALKHRYFDKDRRTDVLPRII,failed
11,MIHFSINKNLFLQALNTTKRAISSKNAIPILSTVKIDVTNEGITLIGSNGQISIENFISQKNEDAGLLITSLGSILLEASFFINVVSSLPDVTLDFKEIEQNQIVLTSGKSEITLKGKDSEQYPRIQEISASTPLILETKLLKKIINETAFAASTQESRPILTGVHFVLSQHKELKTVATDSHRLSQKKLTLEKNSDDFDVVIPSRSLREFSAVFTDDIETVEIFFANNQILFRSENISFYTRLLEGNYPDTDRLIPTDFNTTITFNVVNLRQSMERARLLSSATQNGTVKLEIKDGVVSAHVHSPEVGKVNEEIDTDQVTGEDLTISFNPTYLIDSLKALNSEKVTISFISAVRPFTLVPADTDEDFMQLITPVRTN,not failed
12,MIHGFLCSTKSALPHPLDDPAFVTASACRLASRPFRFMPQSSRRQNRSGTLVFANWNYVLLLIGVALIVVGFTAMYLEGQYLGFISLYVSPVLIIGGYAEIIYALLWAPDEQSAAEEQ,failed
13,MIHYYKLFWINALNIKGRARRKEFWYPFLMNILINIMLEIIFFLLPIPAIIEDTVGWIVYILILVAMFTVTVRRFHDVGMTMLIPIIIFLIAVINDFSEFINSDIPTLDNSALTVIAVIFGVVYIVILIVSLAVCCTSGQKETNQYGVNPKAVE,failed
14,MIIAGLDVGTTKVTTVIGELAPDGVLDIIGEGTVPSQGLRRGVVVNLERTTEAIRQSLFQAERVAGVKVERVVVGVGGPHLKSVTSHGLAAIRRGHTIAEADVERAIEQAKAYPFEGELELLHALPLEFKVDGQEGIRDPVGMAGVRLEVDVHLIAAGRGPLANLRRAVEEAGLALDAVCVQALASGLAVLTPEEEEMTVLLLDIGGGTTDVAVFRGGRLAHSAVVPLGGDHVTHDIAQLLKIPFEEAERVKRKYGAALPELADPELVLEINQEGGALGEVPAPELARIIRPRMREILHLARQSVDETLGPLEIQVNRVVLTGGGALLRGTDLLARQQYGLPVRVGKPQGVSGLTDVVASPAHAAAVGLVRYGASLPLKPQEAKRIREKPEDKPKGEGLWARIKEFLSNLF,failed
15,MIIETERLLLRPFNEQDVDALYLMNSNPAMLKYIPTAPFTDREQARELFHNVILQDYQQRGFGRWAVEHKADNRVIGFCGPKFIPEFNEVEIGYRYFPEYWGKGIGTEAAEAALSVFPQFGIKQTIALILEGNLGSETVAKRVGMYWREHSEFMGHK,failed
16,MIIGLLNQKGGVGKTTLSVNLAASFARTGARVLLIDVDPQGSALDWAAAREGAPLFPVVGLPRATVHKEITQIGHNYDHIIIDGPPRVTDLARSALMASDFVLIPVQPSPYDIWAADGIVKLIDEARVYKENLKSAFVINRKIVNTAIGRDVGEALGVYPVHVLSANVAQRVIFAEAATQGKTVYEVDKQGLAAAEIEAVAAEIKELAQLEHHHHHH,not failed
17,MIILIWMVIMRHVFRLNLWFVFLATFLFTPYLYAEPIKEPSRPKIALVLAGGGAKGAAHIGVLKALEELNIPIDIITGTSMGAYVGGLYATGKSASEIEAYLHTVDWYSGYQDEVGREEKNSRDKKYEDRFAINPSLGIRKEGVKSPKSAIQGQNMLKILRETSGNPVSVASFDDFPIRYRSVATDIVSMEEVVIDHGLLVDAMMASMSVPGALPPYEFEDKLLIDGGVTNNMPVELAKEMGADIVIAVDISSNYMTKEQIGSLFDVASQLTNFMVKRSTQEQAEFLTDKDILLQPRVGDIETTDFSSMPRAYQEGYDTVMTLKSRLQSLAVAPNEYAQYQNKIKQQSANVRLAQGAIIDKVEVENRSHYESDKLERFIQFEQGTLLSSDYIEDKIHALYATNRFETITYLVEEDNNENVLKVTAKEKEWGPNYLNFRFFLEEDFDTHSQYGLGASINFTDLNDYGAELRTNVELGTDKIFDATIHYPFYLNHHFFVQSNMMYSDKKRSISTSSLEDKEPNSSMSFYPVNLRDFTVDALFGVEATKDQQLKTGILYARGSHELTGLSAYGRTEYERLGATLEYNFDSLDSISLPTHGSLINARYLYAFDKVNSRDVEGSDHSEQYIDEFTAEALFARSIARHTFISSAEYGITNSDDYLVPVNPIELGGFNHLSGLPRNSLIGANKIYGRLTYRYRWFENDLGMFKTAVYLGASAEYGGLWSMKSTDISSAPLIFSGSLFGGIDTPIGPIILSYGRAENGLDSVYLIVGNVE,failed
18,MIINITILEDNESDFITLSDSIKKWAANTGILINIIWLNSYKKFIKSLPTLKCDLFFSDIELNCNNSFTGIDACKQLRESGYTGIIIFLTAFKEYVFDGYDVQAFNYLLKPINYGTINNCLDKFIHLFSLEHHHHHH,not failed
19,MIIRGIRGARINNEIFNLGLKFQILNADVVATKKHVLHAINQAKTKKPIAKSFWMEILVRASGQRQIHEAIKIIGAKDGNVCLICEDEETFRKIYELIGGEIDDSVLEINEDKERLIREIFKIRGFGNVVERVLEKIALIELKKE,not failed
20,MIISLIAALAADRVIGMENAMPWHLPADLAWFKRNTLNKPVIMGRKTFESIGRPLPGRLNIVISSQPGTDERVTWAASIEEALAFAGNAEEVMVMGGGRVYKQFLDRANRMYLTHIDAEVGGDTHFPDYEPDEWESVFSEFHDADEANSHSYCFEILERR,not failed
21,MIISNKSPISINNDPWEAYNDILEHNQLTLSNIEFTTTNLCNMRCSHCAVGYTLQTKDPDPLPMDIIYRRLDEIPNLRTLSITGGEPMFSKKSIKNVVKPLLKYAKHRGIYVQMNSNLTLPQDRYLDIAEY,failed
22,MIIVHHLNNSRSQRILWLLEELGLPYEIKRYQRDPKTNLAPPELKAIHPLGKSPVIEDGPHVVIESGAIVDYLIRRHGDGRLQPDPASATYDEYVQWLHFAEGSAILPLMLNLYVGRLGDAGAPLHPRIHSELANYLGYLNEALGLTPYLLGDELSGADIQMSFIGEFAKMQGMLQPHPNLAAWVQRCQERPAYRQALEQGGEYSFAK,failed
23,MIIVYTTFPDWESAEKVVKTLLKERLIACANLREHRAFYWWEGKIEEDKEVGAILKTREDLWEELKERIKELHPYDVPAIIRIDVDDVNEDYLKWLIEETKK,not failed
24,MIIYNIVYPMILILLYEYLAVNYFKGDKSITSSYYYVIVLIPFFIFTNIITMAYVAKDESLSKTAYRFLSAPIDNSAIVLSKIISCTVISWGCSLILLIISKVLLSVNFEGSTLKILILFFTENFMAAAIGIFLGIVMKNFKTIKGILNIPISILGVLGGCFFPVGALGRTFEKVSYISPFTWINRGIISEVYDKSQTILVGTILVTLVFGIIFSIGASILFNKEVFL,failed
